Reference: patent publication US11278600B2, “Human alpha-galactosidase variants” (Codexis, Inc., priority 2014, dated 2022)
Residue numbers refer to the chain shown, from its start.

B1: 424 (protein)
chain: LDNGLARTPTMGWLHWERFMCNLDCQEEPDSCISEKLFMEMAERMVSEGWKDAGYEYLCIDDCWMAPQRDSEGRLQADPQRFPHGIRQLANYVHSKGLKLGIYADVGNKTCAGFPGSFGYYDIDAQTFADWGVDLLKFDGCYCDSLENLADGYKHMSLALNRTGRSIVYSCEWPLYMWPFQKPNYTEIRQYCNHWRNFADIDDSWKSIKSILDWTSRNQERIVDVAGPGGWNDPDMLVIGNFGLSWDQQVTQMAEWAIMAAPLFMSNDLRHISPQAKALLQDKDVIAINQDPLGKQGYQLRKGDNFEVWERPLSGDAWAVAIINRQEIGGPRSYTIPVASLGKGVACNPACFITQLLPVKRQLGFYNWTSRLKSHINPTGTVLLQLENTMQMSLKDLL
modifications: Synthetic Polypeptide sequence of Variant No. 424 of mature Human GLA
B2: 425 (protein)
chain: B1 chain with E255L, H271E
modifications: Synthetic Polypeptide sequence of Variant No. 425 of mature Human GLA
B3: 365 (protein)
chain: B1 chain with S47N, E255L
modifications: Synthetic Polypeptide sequence of Variant No. 365 of mature Human GLA
B4: 428 (protein)
chain: B1 chain with E255L, M259S
modifications: Synthetic Polypeptide sequence of Variant No. 428 of mature Human GLA
B5: 426 (protein)
chain: B1 chain with E255L, M259E
modifications: Synthetic Polypeptide sequence of Variant No. 426 of mature Human GLA
B6: 434 (protein)
chain: B1 chain with E255L, R270D
modifications: Synthetic Polypeptide sequence of Variant No. 434 of mature Human GLA
B7: 430 (protein)
chain: B1 chain with E255L, H271T
modifications: Synthetic Polypeptide sequence of Variant No. 430 of mature Human GLA
B8: 432 (protein)
chain: B1 chain with E255L
modifications: Synthetic Polypeptide sequence of Variant No. 432 of mature Human GLA
B9: 433 (protein)
chain: B1 chain with E255L, H271Q
modifications: Synthetic Polypeptide sequence of Variant No. 433 of mature Human GLA
B10: 364 (protein)
chain: B1 chain with M39H, E255L
modifications: Synthetic Polypeptide sequence of Variant No. 364 of mature Human GLA
B11: 436 (protein)
chain: B1 chain with E255L, H271G
modifications: Synthetic Polypeptide sequence of Variant No. 436 of mature Human GLA
B12: 437 (protein)
chain: B1 chain with E255L, L263E
modifications: Synthetic Polypeptide sequence of Variant No. 437 of mature Human GLA
B13: 431 (protein)
chain: B1 chain with E255L, R270G
modifications: Synthetic Polypeptide sequence of Variant No. 431 of mature Human GLA
B14: 435 (protein)
chain: B1 chain with E255L, I258L
modifications: Synthetic Polypeptide sequence of Variant No. 435 of mature Human GLA
B15: 429 (protein)
chain: B1 chain with E255C
modifications: Synthetic Polypeptide sequence of Variant No. 429 of mature Human GLA
B16: 427 (protein)
chain: B1 chain with E255L, L263G
modifications: Synthetic Polypeptide sequence of Variant No. 427 of mature Human GLA

How the values were obtained:
Format in all cases: biochemical
[1] = HTP-analysis of supernatants pretreated with base (MUGal hydrolysis); conditions: activity of the variant/activity of Rd4BB (SEQ ID NO: 15); challenge at pH 9.65
How it was run: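 Fluorescence of released 4-MU (Ex 355 nm, Em 448 nm) after carbonate quench reports MUGal hydrolysis by GLA variants secreted from INVSc1 yeast. Before the acidic (pH 4.3-4.8) 30-180 min reaction at 37° C, supernatants had been pre-incubated at pH 7.0-9.7 for 1-18 h at 37° C.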

[2] = HTP-analysis of supernatants pretreated with acid (MUGal hydrolysis); conditions: activity of the variant/activity of Rd4BB (SEQ ID NO: 15); challenge at pH 3.7
How it was run: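 MUGal hydrolysis was tracked by fluorescence (Ex 355 nm, Em 448 nm) after a 30-180 min reaction at 37° C. in pH 4.8 McIlvaine/citrate buffer, stopped with 1 M sodium carbonate. Beforehand, yeast (INVSc1) culture supernatants carrying GLA variants were held 1-3 h at 37° C. in acidic McIlvaine buffer, pH 3.3-4.3.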

[3] = HTP-analysis of yeast culture supernatants, no challenge (MUGal hydrolysis); conditions: activity of the variant/activity of Rd4BB (SEQ ID NO: 15)
How it was run: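 Activity read as 4-methylumbelliferyl α-D-galactopyranoside hydrolysis: fluorescence (355/448 nm) after sodium carbonate stop, following 30-180 min at 37° C with 2 mM MUGal stock at pH 4.6–4.8. Enzyme source is unchallenged culture supernatant of INVSc1 yeast expressing GLA variants, grown 66-84 h at 30° C.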

| Molecule | Relative Activity of GLA Variants After Challenge at pH 9.65 [1] | Relative Activity of GLA Variants After Challenge at pH 3.7 [2] | Relative Activity of GLA Variants After No Challenge (NC) [3] |
| --- | --- | --- | --- |
| B1 | − (<0.5 relative activity over Rd4BB (SEQ ID NO: 15)) | + (0.5 to 1.5 relative activity over Rd4BB (SEQ ID NO: 15)) | + (0.5 to 1.5 relative activity over Rd4BB (SEQ ID NO: 15)) |
| B2 | + (0.5 to 1.5 relative activity over Rd4BB (SEQ ID NO: 15)) | − (<0.5 relative activity over Rd4BB (SEQ ID NO: 15)) | + (0.5 to 1.5 relative activity over Rd4BB (SEQ ID NO: 15)) |
| B3 | + (0.5 to 1.5 relative activity over Rd4BB (SEQ ID NO: 15)) | + (0.5 to 1.5 relative activity over Rd4BB (SEQ ID NO: 15)) | + (0.5 to 1.5 relative activity over Rd4BB (SEQ ID NO: 15)) |
| B4 | − (<0.5 relative activity over Rd4BB (SEQ ID NO: 15)) | + (0.5 to 1.5 relative activity over Rd4BB (SEQ ID NO: 15)) | + (0.5 to 1.5 relative activity over Rd4BB (SEQ ID NO: 15)) |
| B5 | − (<0.5 relative activity over Rd4BB (SEQ ID NO: 15)) | − (<0.5 relative activity over Rd4BB (SEQ ID NO: 15)) | + (0.5 to 1.5 relative activity over Rd4BB (SEQ ID NO: 15)) |
| B6 | − (<0.5 relative activity over Rd4BB (SEQ ID NO: 15)) | − (<0.5 relative activity over Rd4BB (SEQ ID NO: 15)) | + (0.5 to 1.5 relative activity over Rd4BB (SEQ ID NO: 15)) |
| B7 | + (0.5 to 1.5 relative activity over Rd4BB (SEQ ID NO: 15)) | − (<0.5 relative activity over Rd4BB (SEQ ID NO: 15)) | + (0.5 to 1.5 relative activity over Rd4BB (SEQ ID NO: 15)) |
| B8 | + (0.5 to 1.5 relative activity over Rd4BB (SEQ ID NO: 15)) | − (<0.5 relative activity over Rd4BB (SEQ ID NO: 15)) | + (0.5 to 1.5 relative activity over Rd4BB (SEQ ID NO: 15)) |
| B9 | + (0.5 to 1.5 relative activity over Rd4BB (SEQ ID NO: 15)) | + (0.5 to 1.5 relative activity over Rd4BB (SEQ ID NO: 15)) | + (0.5 to 1.5 relative activity over Rd4BB (SEQ ID NO: 15)) |
| B10 | − (<0.5 relative activity over Rd4BB (SEQ ID NO: 15)) | + (0.5 to 1.5 relative activity over Rd4BB (SEQ ID NO: 15)) | + (0.5 to 1.5 relative activity over Rd4BB (SEQ ID NO: 15)) |
| B11 | − (<0.5 relative activity over Rd4BB (SEQ ID NO: 15)) | − (<0.5 relative activity over Rd4BB (SEQ ID NO: 15)) | + (0.5 to 1.5 relative activity over Rd4BB (SEQ ID NO: 15)) |
| B12 | − (<0.5 relative activity over Rd4BB (SEQ ID NO: 15)) | + (0.5 to 1.5 relative activity over Rd4BB (SEQ ID NO: 15)) | + (0.5 to 1.5 relative activity over Rd4BB (SEQ ID NO: 15)) |
| B13 | − (<0.5 relative activity over Rd4BB (SEQ ID NO: 15)) | − (<0.5 relative activity over Rd4BB (SEQ ID NO: 15)) | + (0.5 to 1.5 relative activity over Rd4BB (SEQ ID NO: 15)) |
| B14 | − (<0.5 relative activity over Rd4BB (SEQ ID NO: 15)) | ++ (>1.5 to 2.5 relative activity over Rd4BB (SEQ ID NO: 15)) | + (0.5 to 1.5 relative activity over Rd4BB (SEQ ID NO: 15)) |
| B15 | − (<0.5 relative activity over Rd4BB (SEQ ID NO: 15)) | + (0.5 to 1.5 relative activity over Rd4BB (SEQ ID NO: 15)) | + (0.5 to 1.5 relative activity over Rd4BB (SEQ ID NO: 15)) |
| B16 | − (<0.5 relative activity over Rd4BB (SEQ ID NO: 15)) | − (<0.5 relative activity over Rd4BB (SEQ ID NO: 15)) | + (0.5 to 1.5 relative activity over Rd4BB (SEQ ID NO: 15)) |
